Test results as given in patent US20210130473A1 (SILVERBACK THERAPEUTICS, published 2021).

B1: L4L (antibody, V domains shown)
VH: DVQLQESGPGLVKPSQSLSLTCTVTGYSITSDYAWNWIRQFPGNKLEWMGYISYSGSTRYNPSLKSRISITRDTSKNQFFLQLNSVTTEDTATYYCARRYRYDEGYGMDYWGQGTSVTVSS
VL: DIQMTQSPASLSVFVGEIVTITCRASENIYSNLAWYQQKQGKSPQLLVYAATNLADGVPSRFTGSGSGTQFSLKINSLQSEDFGNYYCQHFWGTPPWTFGGGTKLEIK
notes: parental mouse hybridoma antibody; also called mAb L4L
B2: G2D (antibody, V domains shown)
VH: EVQLQQSGPELVKPGASVKISCKASGYSFTGYYMHWVKQSHVKSLEWIGRINPNNGATNYNQNFKDKASLTVDKSSSTAYMEFHSLTSEDSAVYYCTSVNFYYWGQGTTLTVSS
VL: DIKMTQSPSSMYASLGERVTITCKASQVINSYLSWFQQKPGKSPETLIYRANTLVDGVPSRFSGSGSGQDYSLTISSLEYEDLGIYYCLQYAEFPYTFGGGTKLEIK
notes: parental mouse hybridoma antibody; also called mAb G2D
B3: J4F (antibody, V domains shown)
VH: QVQLQQSGDDLVKPGASVKLSCKASGYTFTSYWINWIKQRPGQGLEWIGRIVPGSGSTYYNEMFKDKATLTVDTSSSTAYIQLSSLSSEDSAVYFCARKPNFDVWGAGTTVTVSS
VL: DIVMTQSQKFMSTSVGDRVSVTCKASQNVGTNVAWYQQKPGQSPKAVIYSASYRFSGVPDRLTGSGSGTDFTLTITNVQSEDLAEYFCQQYNSYPLTFGAGTKLELK
notes: parental mouse hybridoma antibody; also called mAb J4F
B4: H8K (antibody, V domains shown)
VH: DVQLQESGPGLVKPSQSLSLTCTVTGFSITSDYAWNWIRQFPGNQLEWMGYRSYRGSTSYNPSLKSRISITRDTSKNQFFLQLNSVTTEDTATYYCARRGYYGSSSHWYFDVWGAGTTVTVSS
VL: DIQMTQSPASLSASVGETVTITCRASENIYSYLAWYQQKQGKSPQLLVYNAKTLAEGVPSRFSGSGSGTQFSLKINSLQPEDFGSYYCQHHYGTPLTFGSGTKLELK
notes: parental mouse hybridoma antibody; also called mAb H8K
B5: hzH8K-1 (antibody, IgG1, V domains shown)
VH: QVQLQESGPGLVKPSQTLSLTCTVSGGSISSDYAWNWIRQHPGKGLEWIGYRSYRGSTSYNPSLKSRVTISVDTSKNQFSLKLSSVTAADTAVYYCARRGYYGSSSHWYFDVWGQGTTVTVSS
VL: DIQMTQSPSSLSASVGDRVTITCRASENIYSYLAWYQQKPGKAPKLLIYNAKTLAEGVPSRFSGSGSGTDFTLTISSLQPEDFATYYCQHHYGTPLTFGGGTKVEIK
notes: IgG1, kappa
B6: hzL4L-7 (antibody, IgG1, V domains shown)
VH: QVQLQESGPGLVKPSQTLSLTCTVSGYSISSDYAWNWIRQHPGKGLEWIGYISYSGSTRYNPSLKSRVTITRDTSKNQFSLKLSSVTAADTAVYYCARRYRYDEGYGMDYWGQGTTVTVSS
VL: DIQMTQSPSSLSASVGDRVTITCRASENIYSNLAWYQQKPGKAPKLLIYAATNLADGVPSRFSGSGSGTDFTLTISSLQPEDFATYYCQHFWGTPPWTFGGGTKVEIK
notes: IgG1, kappa

Experiments:
[1] = target: T1, human ASGR1 (asialoglycoprotein receptor 1) on cells (human, UniProt P07306 1-291); test: flow cytometry on HepG2 cells, anti-human IgG PE secondary, MFI (Geo Mean)
T1 construct: whole, on cells; also called HepG2 cells; CHO-S cells transfected with human ASGR1 full length DNA
T1 sequence (looked up): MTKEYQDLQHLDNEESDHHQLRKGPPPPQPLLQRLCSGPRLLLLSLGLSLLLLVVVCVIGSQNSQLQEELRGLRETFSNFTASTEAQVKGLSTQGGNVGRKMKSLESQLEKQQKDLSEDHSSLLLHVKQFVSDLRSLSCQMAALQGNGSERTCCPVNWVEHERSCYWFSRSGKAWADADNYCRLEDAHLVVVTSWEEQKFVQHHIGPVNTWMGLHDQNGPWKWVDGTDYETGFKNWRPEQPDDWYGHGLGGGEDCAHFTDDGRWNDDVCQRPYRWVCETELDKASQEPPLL
Experimental: Briefly, 5×10⁴ HepG2 cells/well were contacted with titrating concentrations of anti-ASGR1 antibodies in FACS Buffer (FB: PBS+2% FBS+1 mM CaCl₂)) for 30 minutes at 4° C. Cells were washed twice in FB, then incubated in anti-human IgG PE secondary for 30 minutes at 4° C. Cells were washed twice in FB, then analyzed by flow cytometry.

[2] = target: T2, human Fc-fused human ASGR1 extracellular domain (human, UniProt P07306 62-291); test: Octet binning, hFc-ASGR1 ECD on AHC sensors; competitor: ASGR1 mAb-A
T2 construct: extracellular domain; also called human Fc-fused ASGR1 ECD; not shown: human Fc
T2 sequence (looked up): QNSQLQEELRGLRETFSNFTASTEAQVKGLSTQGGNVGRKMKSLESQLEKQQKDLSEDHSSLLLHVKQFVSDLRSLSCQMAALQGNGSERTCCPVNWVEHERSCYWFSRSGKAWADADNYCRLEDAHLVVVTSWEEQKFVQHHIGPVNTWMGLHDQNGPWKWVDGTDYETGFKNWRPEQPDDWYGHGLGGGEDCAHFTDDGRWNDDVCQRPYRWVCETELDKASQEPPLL
Experimental: The interactions of the anti-ASGR1 antibodies of this disclosure and control mAbs with human ASGR1 ECD were analyzed using the OCTET® Data Analysis Software 9.0 (ForteBio).

[3] = target: T3, Cynomolgus macaque ASGR1 on CHO-S cells (Cynomolgus macaque); test: Guava flow cytometry on CHO-S cells expressing cynomolgus ASGR1
T3 construct: whole, on cells; also called Cynomologous ASGR1
Experimental: (§1) Anti-human ASGR1 antibodies of this disclosure were examined for cross-reactivity with Cynomolgus macaque and rat ASGR1. Briefly, sequence encoding Cynomolgus macaque or rat ASGR1 was transiently transfected into CHO-S cells. Transfected cells were before performing cell binding assay. A total of about 1.5×10⁴ transfected cells/well were added to 96-well V-bottom assay plate, incubated at 37° C., 5% CO2 for 48-72 hours, and then washed with culture medium before adding 100 μl of each ASGR1 antibody at different concentrations starting from 100 nM and 3-fold dilutions to a total of eight wells. The cells with antibody were incubated for 40 minutes at 4° C., then washed three times with 200 μl of fresh culture medium. To each well was added 50 μl PE conjugated goat anti-human Fc (SouthemBiotech) at 1:200 dilution in culture medium and then incubated at 4° C. for 20 minutes. After washing the plate once, the treated cells were resuspended in 200 μl culture medium and then the stained cells were analyzed on GUAVA® using Incyte software.

rat CLEC10A = target: T4, rat CLEC10A (rat, UniProt P49301 59-306, limits assumed); test: not described
T4 construct: the assay is not described
T4 sequence (looked up): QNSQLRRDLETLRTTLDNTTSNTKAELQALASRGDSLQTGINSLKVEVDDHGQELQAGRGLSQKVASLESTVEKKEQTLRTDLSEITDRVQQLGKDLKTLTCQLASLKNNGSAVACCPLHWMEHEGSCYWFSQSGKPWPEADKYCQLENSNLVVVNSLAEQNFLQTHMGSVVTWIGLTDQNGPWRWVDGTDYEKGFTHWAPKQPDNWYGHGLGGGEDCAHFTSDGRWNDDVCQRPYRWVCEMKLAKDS

[4] = target: T3, Cynomolgus macaque ASGR1 on CHO-S cells; test: Guava flow cytometry on CHO-S cells expressing cynomolgus ASGR1 (repeat of Table 15)
Experimental: as §1

rat ASGR1 on CHO-S cells [5] = target: T5, rat ASGR1 on CHO-S cells (rat, UniProt P02706 1-284); test: Guava flow cytometry on CHO-S cells expressing rat ASGR1
T5 construct: whole, on cells
T5 sequence (looked up): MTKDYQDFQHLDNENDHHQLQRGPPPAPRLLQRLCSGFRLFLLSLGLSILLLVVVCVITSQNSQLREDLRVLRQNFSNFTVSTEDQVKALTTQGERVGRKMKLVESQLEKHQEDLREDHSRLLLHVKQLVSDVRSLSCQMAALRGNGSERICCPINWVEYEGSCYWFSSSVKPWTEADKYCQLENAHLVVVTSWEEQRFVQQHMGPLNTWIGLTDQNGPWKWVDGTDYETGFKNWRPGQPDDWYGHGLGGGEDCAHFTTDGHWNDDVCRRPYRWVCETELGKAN
Experimental: as §1

rat ASGR1 on CHO-S cells [6] = target: T5, rat ASGR1 on CHO-S cells; test: Guava flow cytometry on CHO-S cells expressing rat ASGR1 (repeat of Table 16)
Experimental: as §1, with “Briefly,” for “Anti-human ASGR1 antibodies of this disclosure were examined for cross-reactivity with Cynomolgus macaque and rat ASGR1. Briefly,”, “(SouthernBiotech)” for “(SouthemBiotech)”
as §1

rat ASGR1 on CHO-S cells [7] = target: T5, rat ASGR1 on CHO-S cells; test: Guava flow cytometry on CHO-S cells expressing rat ASGR1; remark: listed apart in the source
[8] = target: T6, His-tagged human ASGR1 extracellular domain (human, UniProt P07306 62-291); test: Octet, His-tagged ASGR1 ECD on Penta-His sensors; N = association not sensitive to Ca2+ (binds also without calcium)
T6 construct: extracellular domain; also called His-tagged human ASGR1 ECD; human ASGR1 ECD; not shown: His tag
T6 sequence (looked up): T2 sequence (looked up)
Experimental: Analysis of ASGR1 antibody binding to human ASGR1 ECD was performed using the OCTET® Red 96 instrument and analyzed using the OCTET®Data Analysis Software 9.0 (ForteBio). His-tagged human ASGR1 ECD was immobilized to OCTET® Penta-His biosensors and ASGR1 antibodies were subjected to avidity binding under the conditions described above. Association with the ASGR1 ECD was measured by the rate of and increase in magnitude of signal response at a given antibody concentration. Dissociation from the ASGR1 ECD was measured the rate of loss in signal upon removal of the antibody and further incubation with or without Ca²⁺.

Binder	binding result [1]	binding result [2]	EC50 (read off the curve) [1] [µg/mL]	EC50 [3] [nM]	binding result (rat CLEC10A)	EC50 [4] [nM]	EC50 (rat ASGR1 on CHO-S cells [5]) [nM]	EC50 (rat ASGR1 on CHO-S cells [6]) [nM]	binding result (rat ASGR1 on CHO-S cells [7])	binding result [8]
B1	binds	binds	–	–	–	–	–	–	–	–
B2	–	–	~0.2	0.47	no binding	0.47	0.37	0.37	–	–
B3	–	–	~0.3	0.67	–	0.67	0.62	0.62	–	–
B4	binds	binds	–	–	–	–	–	–	–	–
B5	–	–	–	0.66	–	0.66	–	–	no binding (tested: 100 nM highest concentration)	–
B6	–	–	–	0.39	–	0.39	–	–	no binding (tested: 100 nM highest concentration)	binds
